Source: the domain aggregation screens of Martell et al. (2025)

Assay: soluble fraction after stress (log2 fold change); higher = more stays soluble; pooled small domains, quantitative proteomics
Details: stress: pH 4
Summary of the method: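 Custom libraries of small protein domains were pooled and measured with high-throughput quantitative proteomics after pH 4 stress. The read-out is the fold change in the amount of each domain that stays soluble after the acid stress, taken as a measure of aggregation propensity. Fold changes are on a log2 scale, and higher values mean more of the domain stayed soluble.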

Row | Sequence | soluble fraction (log2)
1 | HMLPELIVTTKKGVTVTVTNGVITYSATSNGKATFTVPNYGKWTVSATINGTVISKVVDVTEAKQIPVLLG | -0.318
2 | HMQNLSELAYVNLRDALMQGQMKPGEELPLRPISRSFGISATPMREALLRLVTESALEMDSRGRISVP | -0.183
3 | HMAPLVTLEADGNGAVKLSNLAGHSIREVAGALGGAGLSLIPVGSGTSWKQNPAPGTVLHSGDTVTVYF | 0.22
4 | HMEGPALKVWKARYLRAAILEQLLSDRWDDRGGQPIRVVVNEPTNSLLIRIPRHLWPEAEKLLQELDQR | -0.312
5 | HMGNIKVPSVMGMTLEGAEKVAKDNGAVIEVLEYKESTEEDGTIIEQSPKADMTVATLEKISVVISGK | 0.0995
6 | HMGWQPDPLTTRERLVAELATQASNAQIAEQLHLSVRTVEGHLAHVYTKLGITTRRELPAALAGAR | -2.8e-05
7 | HMGDVPESLVEKAGHSINAKIISAWGMTETGASTMTRPQDDPERAIYSDGVVLPLMDVRVVNDAGLA | -0.271
8 | HMQATDEEIENFTSSAITAYKLTKEEGYIISMRDMKPIMEIVKTEYPMANGKVVSKVMNNYING | 0.22
9 | HMGKLYRDRYAPLEPDGARAGDRVFIISLEKEGTLERIDLPRKTATVLLGSSIRSTFPLDDLYQPRG | -0.163
10 | HMKYNGDRPVFNDDVAWAKWMLENPAKITSHDKENLSSMLKKPEVVMLFEAEDLSVPDLRTLAKE | -0.349
11 | HMKVSRTAVKLHHANAVEVAKKLQPLFVVGDVQIEPVKDAGIILLKGPASTLADLRESIVQMDHTA | -0.309
12 | HMSEPRYRQLATILAQEIRSNHSAGDQLPSEQALAKRFEVNRHTVRRAVDELVAAGMVTRHQGWGTQVV | 0.243
13 | HMKTGAKLKNLRKMKKLSQEEVAKVLNLSYSTLSRWENDTRIPTYEDLFKLGQFYGVSVDYLSDPN | -0.853
14 | HMQDTVKNVFGAFTIFTDKPFAIGDTINVNGLEGTVVDVGMRSTQILGYDRRITSYPNYKITDSSIVNISS | -0.636
15 | HMKEMTAKQIDMFSDKLSKLESFQSHYIADAGVSVTEYKQAIAAKLQDQFYVEAWGKYLADVGFT | -1.13
16 | HMSQDPLETYYPQWSAAVKQSNPDAEIIRDTDGKYYVEGMTKNRVAVIYENPHLVRLVNATTNVHVE | 0.238
17 | HMNSRQPEEEALFELLAKNPYSDEQLEEIRIAIGSGISYKDVLVIADIKNTAKQMKKLRLKFTKDTG | 0.118
18 | HMDTNELIDRYVNEVGQHLPRKTRADIEMELRSLLLDTLEEQSGGEPTPKMAAEVLREFGHPEEIAAQYH | -0.755
19 | HMKDMKISTKNLLQELAKNYPDQTSFRKNVIETTARAMGYTGKDFYPLLTTDNRVKIGTYDLATFLRSI | -0.122
20 | HMHSLLDDIPNVGEKRKRILLTHFQSLEEIKAATVEELERLPQINRKAAESIYTFFHSQPIR | 0.139
21 | HMGMESFWNRVANLLNTSTVVELAQILDVKRSTLSSWIHSDRRPPMEVLLKITRLTGVDIHRLE | -0.576
22 | HMIPTTELAERLGTTKVANMIMLGALIKASGIISFDDMIKNLGELLGEGKAKLIKLNKEALEVGFN | 0.0451
23 | HMDNIPAHIKAKIINYVNRNYPGAIIKDIERKSNGRYEAEIVYNNREYDLLFDAQGNFISASLDDK | -0.32
24 | HMKSKNILLGEYKGKEVHVGEGKYGPFILYDKKFKSIGAYLTENSLMLKDLTIEDYSKIMKFTENSNSKS | 0.0285
25 | HMDSVFGVVTSSDGVKLRKEASTISKVLTVLPYGTEVDVDRIGSEWIRIVTDGGQKGYVSADYLAVREGER | -0.1
26 | HMKPNEYVSGETFPYLGKNYRLKVLHGSENSVRLKGGYFITTISNRDSQLSTVKSLLEDWYQTHADK | -0.163

Row | Sequence | soluble fraction (log2)
27 | HMIVLPGEELEVHIVQEGKEDGQGVAYLDDGTMVVVEGGRPYVDSFAYVAVTRVLQTGAGRIIFAHPTR | -0.108
28 | HMGNIYKALLGKLEKQLGFLPEGTKLPPEQELAEKFGVSKPTLRRALAELAVRGIIVKQNGIGSVVAGS | ≥ 0.43
29 | HMVFLPDEIFRLKVIKAGEGPEQGVGYLDDGTMVVIEGARDRIGDELEVRVTSTLQTNAGKMIFTKFE | -2.12
30 | HMTKRTVKSVARKIADFNRERHRMPTYEEMLTLLAVRSKSVVHFWMNKLLQEGILEKDESGHLTFV | 0.14
31 | HMEDQLDSLKDIIYDYLENNELYYNDLQEFKKIIIENMEFIHPNLNHKLIDNNFFKLINFKLEYNF | -0.828
32 | HMQILNVFSKHGIKPISPQIGDKFDPQLHEAMFEAPVPGTKAGDIIEVSSEGFMLYDRLLRPAHVGVSSN | -0.138
33 | HMEWTVEKQAAATLNAWMRKNSEMTSEKKVAVAAGIGPATVNRIMKAEVSTTIGVLSSLARAFGHEAYEMI | 0.114
34 | HMDSDFIKIEVLFNERNRLDLKAMMEASGFTDRGQFLSIMADLTGDENWDRNLDRGDIFYLPRSFTI | -1.6
35 | HMKKEDFLEILRDYLKKGFSEDEVMDILRDYEEYFVDGIIEGKSEIEIIQSLGSPKEIANELLAES | -0.754
36 | HMQEDQKTSIFDIEGVEKGVASVLSSIKVEIVSDLLEADMDDILKSGKISEDDLDGVYEAVQNFVER | -1.28
37 | HMEMELNHVARRAGRLSGFLKGELRLSTGLMNRLKWSNAILVNGKPARTNAQVEPGDRITVILD | 0.189
38 | HMYYSERILTILEERGISPYRVSKETGISQSVFSNWKRKPTSRITAANLERLADYLGLPVEVLTG | 0.134
39 | HMDKLEKRILDYLLQKSAIDGSTILKISHREMAMDLGTAREVVTRILKKLETGGFVRQGENYLEILK | -0.456
40 | HMKSTELSIIEALRVLGLKHGASQDSIKKSYRRLVKQHHPDLGGSADSFRKVNEAYQLLIMN | 0.0586
41 | HMHSFGLHVRNLRKKSNLTLSQLSNASGLSLSAISKIENNQISPSFINLIRLAEGLKMHIADLVTVK | -0.254
42 | HMERLKKYLDDVRTFLPGTNPKKVDEILREIESHVLERAEREHGEVNDNAVAMSIKEYGSPEEVAARYYEG | -0.29
43 | HMFAGEWKQDASGWWYQNDDGSFTRNGWQNISGKQYYFNENGYMLHDTTTPDGKQVGSDGSLV | -0.389
44 | HMNSRAERKEAAKEAIRNLLREGMTFEELTGPWLEKRFAEEPFNRGARSWQMLISEIKEEPEFQHL | -0.916
45 | HMGETRWTYDDFGNILTEKAAPYSATEFLGKTYTYDTDNRYLKTVTDALGRTTTTLSYDKYGNPLSVMD | -0.357
46 | HMENMTLGQRIQALRKQHGLSQEGLGERLGVSRQAISRWEMDGAVPEVDKLIAMARLFGVSLNQLLGVE | -0.0911
47 | HMGETAFRYALPLDQGEALKRSHVIRQSISPDDALATRVTVLEDVLDQTLRQPVQAGEVLLEDHFTR | -0.682
48 | HMLTAHEAILKELRKMLLTGVLSPGEAVRPEIIGESFGVSAVPVREALRILEGEGQVLNRPHKGYVVT | -0.482
49 | HMANFGSILRNLRISRDITQSELAAKLGVSRSTVGMYETGAREPDFEAMEAIADTFNVDMDYLVGRSQ | -0.326
50 | HMRQTGWVTADSLNVRARPSLQAERVEKVTYGQQVQIMFKQGQWYQIATENGKIGWVSSEYIAAVSP | 0.0725
51 | HMKELTELIEKIKLRRLELGLSYQELSDLTGINKSTLQRYETGFIKKVPINQVQIIAKALNVTPGYLMG | -0.718
52 | HMTDDPGLSRAENRELQTLLLDRGHDIGQPDGLIGAKTRAAIRAEQSRLNMPVNGRGGQKLLRALRL | -0.46

Row | Sequence | soluble fraction (log2)
53 | HMKYNYEAQQSDELSLVKGSRIHVLEKSSDGWWKGEIDNVVGWFPS | -0.102
54 | HMNEIDLEAAKRIALQNAGVESADAAFTKAQLDYDDGVAEYEIEFVAGSTKYEYEISAANGTVLKSSKESV | 0.243
55 | HMNENNFIVAMRERLAQFIETSGTSQSRIAKELGVSKSTVSLFLGGTYGGNNQELARNLEQLLSMGAARR | 0.212
56 | HMAGWIPVEERLPDDLTNPITRDAYVYPVTVDLGDVTDIRYYSFWRGHWYNQGPETMDDLVIAWMLLPEPY | -0.178
57 | HMPNTLAGIERYLGSGMVKGIGPVYASRLVSAFGTAVFDVIEQTPERLREIDGIGEKRTRKITSGWADQ | -0.242
58 | HMFYLPEPLTEQELRILGMLLDGRSNPEIAAELFIAVGTAKWHVHNILQKLGVANRAQAIVKAHELGLT | -1.88
59 | HMGPLSDRSVADWLLRLGLADTANNRLLLQVMHAAGLPLERTAVRAMRETAAGRPEGTDAREWLQAAAAAQ | -0.326
60 | HMNNPISMQKLRQVIRLYGQGKGTKSINSMLGVSRNTIKKYLQVYHSSGINYESFLAMSDKELSAVFLV | 0.226
61 | HMTNKYSSLVIGTVKTIMEEDQYKNLMGPPLKKEIIKQVDKFTNALPIEFDQNDKDFYVKKILINL | -0.299
62 | HMASQEESVATYIQDYYRNPKTGESMVSDDMVEEFYKTHPEWEDQADGSKEGMEAVLDNFNEFFEINYG | -0.136
63 | HMNNFNVVVGKAIKNSFNTRENYITINAGKVLGIKTDMGVINDKGIVGIVEKTSKDFATIQSVLNIKS | 0.22
64 | HMKSLAQELVDALGDRIRDGRLKVGDKLPSEAAIEAQYGVSRTVVREAISRLQAAGLVVTRHGIGTFIVGI | ≥ 0.43
65 | HMEKYIVNQEEQGKRLDIYVVNKSSELTRTAVQRLIEQEHILVNGRKQKASYKVLEGDIITIERV | -0.649
66 | HMDYNSYGLTERELELVDYVLKGYSRKEMAEASGLKVNTIGSYMKKIYRKLNIHNRTELKERFI | -1.31
67 | HMAAHWANFLEALRAGRARRVLVARGVEGWLLKELERLGAPYTLVPRIELDTLLRTTHHQGIAAEVE | -0.748
68 | HMNSLQNNLKQARTRVGLTQGVLASQAGISRQAYSTLESGSANPSTEVALRLAQALQERVELLFYLPER | -0.609
69 | HMLGVLEYYNNGQKKSERTFKGGMQIYTEWYENGQMKAEERKWIDQLGSLKFLNLLSTEWDENGNEISRME | -1.28
70 | HMSEQGVITAKFASIVGNQNIQLVMFPDSVYLKGQVSSEEEKKRAETVASSLIQDRKIVNLIEFE | -0.638
71 | HMGFLTKTQRLEILLHLKDEPYYNVEKLKELIKNRYGIVYQSSQSYYDLLKEAGLSWHQTQA | 0.00834
72 | HMSDYYEVLGVTRQADAEEIKRAYRRKARQLHPDVAGPGHEEEFKEVTVAYEVLSDPEKRQAYDLGGQDAL | 0.0614
73 | HMSATPQRMSIINELDSARKNLSAYDLRDSLKDKGHSFNISTIYRVLSFWIDVGVVHKMDSSNTYL | -0.315
74 | HMAVGDMISKLRTAANMSQEQFAELFGVTRQSVQKWENSFSVPELEKLIKISKYFDVSLDALVLRSDARVT | -1.32
75 | HMVVYFGGPVMLERGIVLHTPDISTKGTINVSDDFALTAHKEILDNINKDTSSLQFKLAIGH | -0.337
76 | HMAAVEDLPVKSVNGKKYHYYTVQPKESLYSLSHKLGISRQEIIKYNPGVEDGLKAYEDLLFPYTPK | -0.419
